US20130004505A1 (CELLTRION, published 2013)

B1: CT104 antibody (antibody, V domains shown)
VH: QVQLVQSGAEVKKPGSSVKVSCKASGGTLNNYAISWVRQAPGQGLEWMGGISPIFGTLNYAERFQGRVTITADVFTNTVYMELSSLRSEDTAVYFCARGCGYNCYYFDGWGQGTLVTVSS
VL: EIVLTQSPGTLSLSPGERATLSCRASQSLSSSSLVWYQQKPGQAPRLLIYGASSRATGIPDRFSGSGSGTDFTLTISRLEPEDFAVYYCQQYGNSPYTFGQGTQVEIKR
B2: CT123 antibody (antibody, V domains shown)
VH: QVQLVESGGGVVQPGRSLRLSCAASGFTFSRFGIHWVRQAPGKGLEWMAVIWYDGSNKFYADSVKGRFTISRDNSKNTVYLQMNSLRAEDTAVYYCAKDSRGYCSSIICFEGGLDNWGQGTLVTVSS
VL: ETVLTQSPGTLSLSPGERATLSCRASQSVSISYLAWYQRKPGQAPRLLIYGASRRATGIPDRFSGSGSGTDFTLTISRLEPEDFAVYYCQQYGSSPYTFGQGTKLEIKR
B3: CT120 antibody (antibody, V domains shown)
VH: QVQLVQSGAEVKMPGSSVKVSCKTSGVFFSSHAISWVRQAPGQGLEWMGGISPMFGTTHYAQKFQGRVTITADQSTTTAYMELTSLTSEDTAVYYCARDGAGSYYPLNWFDPWGQGTLVTVSS
VL: EIVLTQSPATLSLSPGERATLSCRASENIWNNLAWYQQKPGQAPRLLISGASTGATGVPSRFRGSGSRTEFTLTISSLQSEDFAIYFCQQYNSWPRTFGPGTKVEIKR

Columns and labels:
Assay in all cases: cell-based or functional assay
[1] = biological target: T1, HA of influenza A virus H1N1 A/Texas/05/2009-RG15 (pandemic), on virus (influenza A virus H1N1 …)
[2] = biological target: T2, HA of influenza A virus H1N1 A/New York/18/2009-RG18 (pandemic), on virus (influenza A virus H1N1 (A/New …))
[3] = biological target: HA of influenza A virus H1N1 A/Solomon Islands/3/2006 (seasonal), on virus (influenza A virus H1N1 (A/Solomon …))
[4] = biological target: HA of influenza A virus H1N1 A/Ohio/83 (seasonal), on virus (influenza A virus H1N1 (A/Ohio/83))
[5] = biological target: HA of influenza A virus H2N2 A/Ann Arbor/6/60 ca, on virus (influenza A virus H2N2 (A/Ann …))
[6] = biological target: HA of influenza A virus H5N1 A/Vietnam/1203/04, on virus (influenza A virus H5N1 …)
[7] = biological target: HA of influenza A virus H5N1 A/Anhui/1/05, on virus (influenza A virus H5N1 (A/Anhui/1/05))
[8] = biological target: HA of influenza A virus H3N2 A/Wisconsin/67/2005, on virus (influenza A virus H3N2 …)
[9] = biological target: T1, HA of influenza A virus H1N1 …; remark: listed apart in the source
[10] = biological target: T2, HA of influenza A virus H1N1 A/New …; remark: listed apart in the source
[11] = biological target: T1, HA of influenza A virus H1N1 …; remark: listed apart in the source
[12] = biological target: T2, HA of influenza A virus H1N1 A/New …; remark: listed apart in the source

Row | Binder | MN assay: lowest antibody concentration at which no virus antigen was detected [1] [µg/mL] | MN assay: lowest antibody concentration at which no virus antigen was detected [2] [µg/mL] | MN assay: lowest antibody concentration at which no virus antigen was detected [3] [µg/mL] | MN assay: lowest antibody concentration at which no virus antigen was detected [4] [µg/mL] | MN assay: lowest antibody concentration at which no virus antigen was detected [5] [µg/mL] | MN assay: lowest antibody concentration at which no virus antigen was detected [6] [µg/mL] | MN assay: lowest antibody concentration at which no virus antigen was detected [7] [µg/mL] | MN assay: lowest antibody concentration at which no virus antigen was detected [8] [µg/mL] | Antibody concentration* (neutralizing antibody concentration) [9] [µg/mL] | IC50 of neutralizing activity [9] [µg/mL] | Antibody concentration* (neutralizing antibody concentration) [10] [µg/mL] | IC50 of neutralizing activity [10] [µg/mL] | Hemagglutination-inhibition test: hemagglutination inhibition end point [11] [µg/mL] | Hemagglutination-inhibition test: hemagglutination inhibition end point [12] [µg/mL]
1 | B1 | 0.313 | 0.625 | 0.625 | 0.313 | > 10 | 1.25 | 0.625 | > 10 | 0.313 | 0.29 | 1.25 | 0.56 | > 20 | > 20
2 | B2 | 0.313 | 0.625 | 1.25 | 0.313 | > 10 | > 10 | > 10 | > 10 | 0.625 | 0.068 | 1.25 | 0.29 | > 20 | > 20
3 | B3 | 0.313 | 0.313 | 0.625 | 0.156 | 2.5 | 1.25 | 0.625 | > 10 | 0.156 | 0.15 | 0.313 | 0.31 | > 20 | > 20
